Source: patent US20100169989A1
Values belong to the substance of their own block, whether it stands above or below them.

Legend:
[1] = target: cell surface binding proteins on L6 myoblasts (GDF-8 receptor); assay: I-125 labeled GDF-8 receptor-ligand binding assay on myoblasts
[2] = target: myostatin mature C-terminal dimer (purified from conditioned medium of CHO cells carrying a myostatin expression construct) (UniProt O14793); assay: inhibition of labeled myostatin binding to Act RIIB-transfected COS-7 cells

Sequence of myostatin prodomain peptide (purified from the CHO cell myostatin preparation) (O08689 25-267): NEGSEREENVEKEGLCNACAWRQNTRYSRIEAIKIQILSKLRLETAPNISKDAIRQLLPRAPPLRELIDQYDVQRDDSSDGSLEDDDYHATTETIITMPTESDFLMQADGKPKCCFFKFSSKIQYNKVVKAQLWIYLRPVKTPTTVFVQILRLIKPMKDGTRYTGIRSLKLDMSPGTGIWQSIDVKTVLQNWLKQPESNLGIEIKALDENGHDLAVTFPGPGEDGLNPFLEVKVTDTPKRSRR

Kd [1]: 370 pM
Substance: recombinant human GDF-8 (rhGDF-8) homodimer (from UniProt O14793 267-374) (ligand)

Ki [2]: 470 pM
Substance: follistatin

fold of Ki against the Ki of follistatin [2]: 50 fold
Substance: myostatin prodomain peptide (purified from the CHO cell myostatin preparation)
